This assay addresses recombinant anthrax protective antigen (PA) (Bacillus anthracis) (UniProt P13423). The assay can be described thus: SPR (Biacore). For orientation: Surface plasmon resonance follows binding to a sensor surface in real time, without labels.

Experimental findings from patent US20100074892A1 are described below.

Sequence of recombinant anthrax protective antigen (PA) (Bacillus anthracis) (P13423 30-764 limits assumed): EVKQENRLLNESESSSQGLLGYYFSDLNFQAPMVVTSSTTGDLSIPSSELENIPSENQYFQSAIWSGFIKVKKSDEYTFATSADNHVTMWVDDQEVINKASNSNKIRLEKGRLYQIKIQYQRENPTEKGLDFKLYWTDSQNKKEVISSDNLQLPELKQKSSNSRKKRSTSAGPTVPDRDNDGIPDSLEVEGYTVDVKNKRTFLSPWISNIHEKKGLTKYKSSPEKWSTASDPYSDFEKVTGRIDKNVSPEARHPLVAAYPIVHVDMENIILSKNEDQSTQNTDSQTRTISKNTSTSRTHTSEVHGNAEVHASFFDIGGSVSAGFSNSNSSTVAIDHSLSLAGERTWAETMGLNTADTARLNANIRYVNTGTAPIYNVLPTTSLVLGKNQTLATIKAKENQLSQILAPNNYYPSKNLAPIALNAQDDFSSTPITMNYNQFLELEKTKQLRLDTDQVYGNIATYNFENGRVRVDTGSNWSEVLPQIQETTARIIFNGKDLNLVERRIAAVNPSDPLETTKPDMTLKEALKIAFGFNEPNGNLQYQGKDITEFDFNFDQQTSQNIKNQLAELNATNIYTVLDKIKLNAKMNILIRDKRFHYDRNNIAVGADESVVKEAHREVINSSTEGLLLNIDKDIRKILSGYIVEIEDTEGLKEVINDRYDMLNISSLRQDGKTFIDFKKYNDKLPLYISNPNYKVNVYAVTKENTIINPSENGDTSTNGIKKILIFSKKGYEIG

Turning to mouse anti-PA monoclonal antibody 14B7, the Kd is 4 nM.

By Kd is commonly meant the free concentration of one partner at which half of the binding sites on the other are occupied at equilibrium, for simple one-to-one binding.
